Series [1] concerns His6-tetraCys-X-MBP protease substrate 25-F [MBP: P0AEX9].
For series [2], the system named is His6-tetraCys-X-MBP protease substrate 22-F [MBP: P0AEX9].
In series [3] the test system is His6-tetraCys-X-MBP protease substrate 21-F [MBP: P0AEX9].
Series [4] concerns His6-tetraCys-X-MBP protease substrate 23-F [MBP: P0AEX9].
For series [5], the system named is His6-tetraCys-X-MBP protease substrate 26-F [MBP: P0AEX9].
For series [6], the system named is His6-tetraCys-X-MBP protease substrate 24-F [MBP: P0AEX9].

With Enterokinase, the “relative rate of reaction (initial proteolysis rate by fluorescence anisotropy, normalised to the cognate substrate)” value in series [1] is given as “n.d. (not detected)”. For the same substance, the relative rate of reaction (initial proteolysis rate by fluorescence anisotropy, normalised to the cognate substrate) (relative rate) in series [2] was 1.3; in series [3], 0.5; in series [4] it was 1; in series [5], 1; in series [6] it was 0.2. Further, the “specific reaction rate (per supplier's unit of enzyme)” value in series [4] is given as “enterokinase, 0.130±0.007”.

As for Factor Xa, the “SDS-PAGE with Coomassie staining after overnight incubation” value is listed as “formation of a small amount of a small molecular-weight band” in series [1]; “little or no intact fusion protein was detected after an overnight incubation” in series [2]; “formation of a small amount of a small molecular-weight band” in series [3]; “formation of a small amount of a small molecular-weight band” in series [4]; “little or no intact fusion protein was detected after an overnight incubation” in series [6]. Moreover, the relative rate of reaction (initial proteolysis rate by fluorescence anisotropy, normalised to the cognate substrate) (relative rate) in series [1] came out at 0.05; in series [2], 0.5; in series [3], 0.04; in series [4], 0.01; in series [5], 0; in series [6], 1. In addition, the “specific reaction rate (per supplier's unit of enzyme)” value in series [6] is “Factor Xa, 0.37±0.03”.

With Thrombin, the relative rate of reaction (initial proteolysis rate by fluorescence anisotropy, normalised to the cognate substrate) (relative rate) was 1 in series [1]; 0.4 in series [2]; 0 in series [3]; -0.02 in series [4]; 0 in series [5]; 0 in series [6]. The “specific reaction rate (per supplier's unit of enzyme)” value in series [1] is on record as “thrombin, 0.20±0.02”. Moreover, the “specific reaction rate (slope of initial proteolysis rate versus protease concentration)” value in series [1] is on record as “thrombin; 240±20”.

Consider Trypsin, for which the relative rate of reaction (initial proteolysis rate by fluorescence anisotropy, normalised to the cognate substrate) (relative rate) stood at 0.5 in series [1]; 1 in series [2]; 0.3 in series [3]; 0.1 in series [4]; 0.4 in series [6]. Further, the “specific reaction rate (slope of initial proteolysis rate versus protease concentration)” value in series [2] was “trypsin; 760±60”. In series [5], the “relative rate of reaction (initial proteolysis rate by fluorescence anisotropy, normalised to the cognate substrate)” value was “n.d. (not detected)”.
